In publication PMC11261779, “Structural studies of WDR5 in complex with MBD3C WIN motif reveal a unique binding mode” (The Journal of Biological Chemistry, 2024):

Tests used:
[1] = target: WDR5 (residues 24-334) D107S (mouse, UniProt P61965 24-334, D107S); assay: ITC; peptide (0.5 to 1.0 mM) titrated into WDR5 protein (44.5 μM) in the cell; 20 °C; Buffer D (20 mM Tris-HCl, 200 mM NaCl, pH 7.5); single binding site model; settings: both partners purified
[2] = target: WD repeat-containing protein 5 (WDR5), truncated construct, residues 24-334 (mouse, UniProt P61965 24-334); assay: as above; settings: both partners purified

Binder	Kd [1] [µM]	dH [1] [kcal/mol]	stoichiometry N [1]	Kd [2] [nM]	dH [2] [kcal/mol]	stoichiometry N [2]
GAARCRVFSPQG (numbers count on: isoform MBD3C; also called MBD3C peptide; MBD3C WIN motif; source: synthetic peptide (GenScript)) [MBD3C_(40-51) peptide (methyl-CpG binding domain 3 isoform C, WIN motif)]	10.8 ± 1.03	-5.4 ± 0.17	1.34	130 ± 20	-11.4 ± 0.13	1.06
GAAKCRVFSPQG (numbers count on: isoform MBD3C; also called MBD3C^R43K; source: synthetic peptide (GenScript)) [MBD3C_(40-51) (R43K) peptide]	–	–	–	1310 ± 210	-15 ± 0.52	1.17
GAARCRVASPQG (numbers count on: isoform MBD3C; also called MBD3C^F47A; source: synthetic peptide (GenScript)) [MBD3C_(40-51) (F47A) peptide]	–	–	–	650 ± 30	-7.32 ± 0.05	1.34
GAARCRVHSPQG (numbers count on: isoform MBD3C; also called MBD3C^F47H; source: synthetic peptide (GenScript)) [MBD3C_(40-51) (F47H) peptide]	–	–	–	1010 ± 40	-7.8 ± 0.04	0.99
GAARCEVFSPQG (numbers count on: isoform MBD3C; also called MBD3C^R45E; source: synthetic peptide (GenScript)) [MBD3C_(40-51) (R45E) peptide]	–	–	–	670 ± 60	-7.49 ± 0.08	1.25
